Assay results from the DeepSol protein solubility set.

Assay: soluble on expression in E. coli; label from the status in PepcDB or PDB records

Row | Sequence | soluble on expression in E. coli
1 | MSLKSTDIKIVEAKFSTEEVPFRTPLKFGGRVMDSSVLLNVEVIVETRNGKQGIGIGSMPAGNIWAWPSAVVSPEDSLKAMIEFLKEAVEIANICPEVAHPIDLMYHISAEYHFMAKKLSKRLGLAEEIPELAQLVASSPLDAAIHDGFGRANHINSYNGLSAEYMSHDLTEYLDDQFKGEYLDQYTLRDPKPTLPLYHLVGALDPITEADISERVDDGLPETLGEWIKADGLTHLKIKLSGDNMDWDISRVIAVENEAVKAQGERGQDKWVYSLDFNEKCENVDYVLDFLNKIREQTPAAFDRVQYIEQPTNRDLKANPENKMHEAAKIKPVVIDESLVDYESLLLSRELGYSGVALKACKGQTESLFLGAAAQKFDMFLCVQDLTCCGYSFLHSASLAARIPSIAAIEGNGRQYCPGPNKKWKRSYPGMFNITDGTVKTSELNGDGLGFEGHHHHHH | soluble
2 | MSLKTFTDRWRQLEWDDIRLRINGKTAADVERALNAAHLSRDDLMALLSPAAADYLEPIAQRAQRLTRQRFGNTVSFYVPLYLSNLCANDCTYCGFSMSNRIKRKTLDEVDIQRECDAIRKLGFEHLLLVTGEHQAKVGMDYFRRHLPTIRRQFSSLQMEVQPLSQENYAELKTLGIDGVMVYQETYHEAIYAQHHLKGKKQDFFWRLETPDRLGRAGIDKIGLGALIGLSDNWRVDCYMVAEHLLWMQKHYWQSRYSVSFPRLRPCTGGVEPASVMDEKQLVQTICAFRLLAPEIELSLSTRESPWFRDHVIPLAINNVSAFSKTQPGGYADDHPELEQFSPHDARRPETVASALSAQGLQPVWKDWDSWLGRASQTREGHHHHHH | not soluble
3 | MSLKTKFGKCIYISPSGYKVYQNLLYRWLTLGSEAWQTVINRYIPRRPGLHYLQILTLMARKFPNDCCLLGLGGAGIAHLLGAQKTIRSIVAVESSEEVIQIAKKFFMTDLIPHFTITHQNARDFVRENKKTFQHMLLDLYDATHFPDECHSMDFFIHCKKQLTDDGFLAVNLANSQEQWALVQLIKKQFPSNIIIPIKKCANIVVIASKNDNKDLFIKQVRNTNEIKKITWVKDWGYVAEYEGHHHHHH | not soluble
4 | MSLKTPAREIITDYAQAHFRYFRTADGTVYAQRNGHPVARPIRSQGTTGSHRQELMVGLFKDGIGVFNGTAMKEALDLIEALALTEDVQPVHIRVAPGFDGATWLDLGRDDGRSVRIHPTGWDIAIPDPREVCWRRTQLTGELPVPIKDTDGKGIDLLLRLCNFATAETECLAIAWLIGCLGPSVPVPAPFLTGPQGAGKSTGGRMLVRIIEGMTGDLRRAPKDEENLIAAVAAGWVTALDNLSHMTPDLSDAMCCIVTGAENVKRALFTDGDVFRARYRRPLLLTGIDVGVIRPDLAERLLPLRLERPKVRRTEAELWTEYAEVLPVVLGSLLDLAVKVRAVEVETPTDLRMADFAHLCAQLDAATGFGALAAYRAALDDLNDDVIEGDLLAQTVLRHAADLEPGTTQRMTSTEWLHCLSQLYTGEEFRPLPKGWPTTGKVLSDRLKRLQPTLAARGVLIDSGRTYEGRYLEMTRAPATEGHHHHHH | not soluble
5 | MSLKTSKTSTVVLIVPTTWSPFFAELVYRMQVELDRIGFKMILANSHADPDEEEEILRMASLNQVTGVITMSYSNIYNFINIGKKLNLVSIERFISEDVPLITSDNYGGGQLAAEKLITFGSKRFLLLRRKTNHYNATDKRTEGFLHIMKENNLPVDIFEASLKENYIEEFIHYLKTHFSGDVLTFDGIFGVTDEYAVIAKQVLFELNPSYLNKVNIIGFDGSKSQEKGSYQIASIRQPVEAMVKAAVKVLKKLIDGEEVPSHYSKVFDVSFVEPERLVEGHHHHHH | soluble
6 | MSLKVAKDLVVSLAYQVRTEDGVLVDESPVSAPLDYLHGHGSLISGLETALEGHEVGDKFDVAVGANDAYGQYDENLVQRVPKDVFMGVDELQVGMRFLAETDQGPVPVEITAVEDDHVVVDGNHMLAGQNLKFNVEVVAIREATEEELAHGHVHGAHDHHHDHDHDGCCGGHGHDHGHEHGGEGCCGGKGNGGCGCEGGSHHHHHH | soluble
7 | MSLKVAVVGLGDISHVHIHAIQNSTKAQLVAVCDENEKLSQQVPHVNYYNDLQTMIDSETLDCVHICLPHYLHVSATTTCVENGINVLQEKPLAVNAKEGLELVKLQRKYPNIKIGICFQNRYNATFQALQEIVESKTYGEVIGVKGLVTWFRPESYYTDKPWRGQMATAGGGVLINQSIHTLDLIQLLCGKIASIKGTVSQLLDYDIEVEDTASAHIKFENKANGMFFATNANFGNSNVELQIIFENEKFTIKDNILTRFNEAGEKIKIAEDEKMTGNKTYYGPSHGKLINAFYDCINNDSNNYVHPKDALTSIAMIDAIQKSSESLKTVQFDSEGHHHHHH | soluble
8 | MSLKVLKKEELVPTLYQLFSQAKEKVLVVSAWIRGSIFKELLSLLPENVQLEVIVRAGNLSDMDITDEAFFRETKKKGGRILLNPKLHSKFLIIDERYAVVGSSNITFMGLYPEGNVETNVLIEEKEKVKELLEFYENLKEESVDYTDVVGYAVSSRSPKEAEIVLLEDLKEQTYLGIQGEEFFLCRLSNVSGKKETREDALNRILSSEVWDWKVAALFAHLYERPEIKTGRLEILGEYEKERNLFKTPTKSVESGSLVKKLEPESEELKRILFKNHSGYDMKYPTYLGKLYNTEVKAYLDMDKVLGMHMAVLGTTGSGKTTFVKKILKNFKESEVIIFDIYGEYAQELGAKEVIVENVLMPISVEDVKDYLKEAGSTLEERSTEEKEFFSVFRRALKPDIEATELKEKSFKEIYEEAVKNLHSLHLKQDAQSVYEHLERTYSRGALEQQPKVLKEVVDFLNSEERVKVFNFKEVDITETKVNLTGLILKEIFIRAKKDRKPRLIVIEEAQNVAPERGTGDVPSGKENVAFVYAKKIAMEGRKLNLGLIAITQRPANLSKFILSQLNTQVIFKLITKNDLDAVSPFFEYSKEDIFRLLPFLKPGTAFVSGLAVPFSFLFQMEEIPYYEGHHHHHH | not soluble
9 | MSLKVVITRPKERADVFASLLKKEGFEPIIFPTLEIVYNKDLDVNLDSYDWIAFTSPSGVIGLYNILTENERENVKNKKIAVIGEKTAKTFKKYFGRDPDIMPNEYTAESLLREIKKVSKEEEKFLIPTTPSTRDVLKNNLNADLLFVYKSAEPENLKEDIKKLKELIAKDKFILTFTSGLTAKNFFKYVDDEFAEIIKDNYIVAIGPITAKVIEKFGFKPLIPKVYTIEGMLEVIRTLKEREGHHHHHH | soluble
10 | MSLKYDVCIIGAGPAGYAAAMRALDLNKSVILIEKDKIGGAGLYNGAISSKTFWELAKDIQTARKRLAQYSPDQHFSVTYQQVLRQVREGIANRRFHLEGQIESLAKQQTSRFRYIKGSAKLVSHNTVEVSTGTEEEIIEAENVVIATGSKPRKLPNIPIDEKIIVTSDGVENFENFPKSLVILGAGVIGCEWATIFSNFGYTSVNIIDKAERILPFEDDDVTDVVEANMKKQGITVHKKSNLLSMRIVDGEVEYILEYTDGRKEMHRVEKVLVSVGRIPNTQNLGLERVGVNILANGQIENTDGQTNIPNIYVAGDISSDVALVNVAELEGRHVIEKMFGLSDSVITYNNVSTIMFVQPEVAGVGMNEKKALQNKMSYKVVKIRYDMIPRAIAMRNNDGFFKILVTNDADMKIIGMRAVGVHASSAIQAVALLISMDKGVEELADMIHPHPSIIEGIQECIRMLLGKSVLKPEFFKGMLSCKSCDENGCVNDIIYLREGHHHHHH | soluble
11 | MSLKYLIDLHTHTIVSGHAYTTLLENIKQASQIGIKILGTSEHGPKMPGAPHIWYFGNMNKVPRKIYDVTVLRGCEADILNSNGDLDIPERIQNELDYIIASLHDVCIEPGTIEDNTKALLNAMNNPNIDILGHTGNPMYPIDIDAVVSKAKEKNVLIEINNGSLSGSREGSYDNCKKIAQACKKKGVKVILGTDSHISFTIGNFDKVQKLLDSVDMPKELIMNTDEKKIVEYLKAKGKLKNEGHHHHHH | soluble
12 | MSLLAEKLQINSITPHPSVEYWSVCKVEALFETPFLELVYRATQVHRKHFNPRAIQLSTLMSIKTGGCPEDCSYCPQSARYHTGVQNQQLLDVDEIVAKAKIAKARGAGRFCMGAAWRGPKPKDIEKVTEIIKAVKSLGLETCGTFGLLQDGMAEDLKEAGLDYYNHNLDTAPEHYAEVIGTRRFDDRLSTLGKVRKAGLKVCCGGIVGMNETRKERAGLIASLANLDPQPESVPINQLVKVEGTPLADAEELDWTEFVRTIAVARITMPKSYVRLSAGRSGMTEEMQAMCFMAGANSIFYGDKLLVTDNPEEDGDQLLMAKLDLEPETAENKKLEGHHHHHH | soluble
13 | MSLLDRLNDDMKQAMKNKEKEKLSVLRMLKAALQNEAIKLGKSPLSEDEELTVLSRELKQRKDSLQEFENAGRSDLVEKVKTEIEIVQSYMPTPLTEDELRELIEQTIKEVGASSKADMGKVMGAIMPKVKGRADGSLVNKLVQQQLS | soluble
14 | MSLLFDSHLHLDQLSDENIQQTLAHSKIIGMLAVSTNLNSAKKLLNLKQTYPKKLYIAAGFHPEQQLPSLEEQKKLFQWIDEHHSSISAIGEVGLPHYSKRENPNLDYVPYIELLERFILIAKKWDLPLNLHIVHNDVEIALELLQKHNIQRAHFHWFKTDEKSFQKFFSTPYFASLTPDILWNSKTQYVAQHLSLNRLMIETDSPWQHEGFERAGISEQLLAVLQKLAELKSLPLHSVQKQILLNTQQFYQLEGHHHHHH | soluble
15 | MSLLGRVLLFYKKGIFNDDLKKFLRSKNINVIDVRIGKYVEVDIMDDPRKVISLIGEPLFMVTEISGTFKPLFYEMRFWECHEIIEEKWREVKNKDDKKFLQAIILLCASLIKYLKGEIEVSDMLMEKALSLISDLPQELLPLLYISLGLNTEGHHHHHH | soluble
16 | MSLLIDFIDETEEVKEEYMSLIREVLEKAAQMENIEDGAEVSVTFVDNERIREINRDYRDKDQPTDVISFAMEEMGEGEMEIVGAEMPRMLGDLIISIPRAKEQAEEYGHSFDRELGFLALHGFLHLLGYDHMTEEDEKEMFGRQKEILEAFGLGR | not soluble
17 | MSLLLIKNGKIITMTGKNYDKGCVLIDNGKIVDVNENIKENKYMKVIDASNFTVIPGIIDAHCHIGIDEQDIGKVGLDINEVSNPVTPNLRAIDAINPMDSAFNDAVMGGITGVMTGPGSANVIGGQFVFMKTYGKCIDDMVVLEPAAVKAALGENPKRVYGGKGKAPVTRMAIAALLREALTEAENYKNKKEALKAKGERIEKNLKLEALIPVIEGNIPLKVHAHRADDILTAIRIAKEFKINITLDHCTEGHLIPEKVKESGYPVLVGPSLTSRSKSEVSNKTFKTPGVLANMGIKTAIITDHPVIPIQYLPICAGLSCREGMKVEDALYAITLNAAEICGVASRLGSIEKGKDADIAIFDGNPMEVFTKTIYTIIDGNIVYKHECYEGHHHHHH | soluble
18 | MSLLNKEALVNRLNASAKRQKADIVIKNGKIMDVYNQEWIYEDIAITDGVIVGLGEYEGENIIDAEGQMIVPGFIDGHVHIESSMVTPIEFAKAVLPHGVTTVVTDPHEIANVSGEKGIEFMLEQARHTPLNIHFMLPSSVPAASFERSGAILKAADLKPFYEEEEVLGLAEVMDYVSVQQAEKDMVQKLLDARVAGKRIDGHLAGLSTDLINIYRTAFVLNDHEVTSKEEALDRIRRGMYVMMREGSVAKNTLNVLPAVNEKNARRFFFCTDDKHVDDLLSEGSVNHQVKMAIQAGLNPFLAYQLGSLNAAECYGLDTKGAIAPGFDADLLFVSDLENVTVTMAMVKGQTVAEDSKAVYQDHASTAAPDQALLDSVKLAAPLNKQDFHMPIDSEQQINVIQIIPNQLETRLVQVPAPVAREFEPDTELDLLKIAVVERHKGLKETGLGVVKGFGFKSGAIATTISHDSHNIIAVGTNDEDIAAAVNKLQEIGGGLTIIKNGEELHSVPLPIAGLLSDQSAEQVNQSLLTLHDKLSLIGFTGGFNPFLTLSFLALPVIPDIKMTTTGLFDVKSFQHISLQEGHHHHHH | soluble
